Measurements from patent US5767072A (priority 1993, dated 1998).
Where no end group is shown, it is not given here.

Key:
[1] = biological target: gp120 (Human immunodeficiency virus type 1 group M subtype B, UniProt P03375); assay type: binding, HIV-1
[2] = test system: HIV infected cells; assay type: cell-based
[3] = biological target: T1, rgp120 (Human immunodeficiency virus type 1 group M subtype B, UniProt P03375); experiment: inhibition of the binding of rCD4-HRP to rgp120 by rCD4 and CD4 peptides; parameters: species or system HIV-1; conditions: even at concentrations of 50 μM
Experimental: The relative affinity of the CD4-peptides-OVA for rgp120 vs rCD4 was calculated by dividing the […].

[4] = biological target: T1, rgp120; experiment: direct ELISA binding of peptide-OVA to rgp120; parameters: species or system HIV-1
Experimental: CD4-peptide (41-84)-OVA (.circle-solid.); CD4-peptide (40-57)-OVA (.smallcircle.); CD4-peptide (81-92)-OVA (.box-solid.). Control peptide-OVA and OVA (.box-solid.).
Wells coated with rgp120 and blocked as described above were treated with various concentrations of peptide-OVA or OVA (control) in 100 μl and the plate was incubated for 2 hr at 25° C. The plates were washed and then incubated with rabbit IgG anti-OVA coupled to HRP (5 μl/ml) for 2 hr at 25° C. The binding of the labeled antibody was detected as described above. Linear regression curves were generated by plotting the absorption vs the concentration of peptide-OVA.

Molecule: GSFLTKGPSKLNDRADS [peptide 41-57]
- inhibition of the binding of CD4 to gp120 [1]: unable to inhibit the binding of CD4 to gp120

Molecule: CCN(CC)CCCC(C)Nc1ccnc2cc(Cl)ccc12 (centres unmarked) [chloroquine]
- anticellular activity against HIV infected cells [2]: significant anticellular activity

Molecule: TYICEVEDGKEE [CD4-peptide (81-92)]
- inhibition of the binding of rCD4 to gp120 by free peptides [3]: did not inhibit the binding of rCD4 to gp120

Molecule: Gln-Gly-Ser-Phe-Leu-Thr-Lys-Gly-Pro-Ser-Lys-Leu-Asn-Asp-Arg-^3 H-Ala-Asp-Ser [CD4-peptide (40-57)]
- inhibition of the binding of rCD4 to gp120 by free peptides [3]: did not inhibit the binding of rCD4 to gp120

B1: OVA: ovalbumin, carrier protein control (protein, UniProt P01012 2-386, looked up)
Ovalbumin: GSIGAASMEFCFDVFKELKVHHANENIFYCPIAIMSALAMVYLGAKDSTRTQINKVVRFDKLPGFGDSIEAQCGTSVNVHSSLRDILNQITKPNDVYSFSLASRLYAEERYPILPEYLQCVKELYRGGLEPINFQTAADQARELINSWVESQTNGIIRNVLQPSSVDSQTAMVLVNAIVFKGLWEKAFKDEDTQAMPFRVTEQESKPVQMMYQIGLFRVASMASEKMKILELPFASGTMSMLVLLPDEVSGLEQLESIINFEKLTEWTSSNVMEERKIKVYLPRMKMEEKYNLTSVLMAMGITDVFSSSANLSGISSAESLKISQAVHAAHAEINEAGREVVGSAEAGVDAASVSEEFRADHPFLFCIKHIATNAVLFFGRCVSP
- binding to gp120 in direct ELISA [4]: did not bind gp120
